Assay: soluble on expression in E. coli; label from the status in PepcDB or PDB records

Row | Sequence | soluble on expression in E. coli
1 | MGSDKIHHHHHHMKQDTIHINGLSIGYHSKSSTKLVAKGIHSTIYSGELTCLLGANGVGKSTLLRTLSAFQPKLDGEILVLGKDIDTYSDKELSTTIGVVLTDKCEIRNMLVRELVGMGRSPYTGFWGKLSKDDKRIVEESIALVRIEELASRMVHTLSDGERQKVMIAKALAQETPVIYLDEPTAFLDFPSKVEIMQLLHHLTRKTNKTIFMSTHDLELALQISDKIWLMDKANGISTGTPEDLALSGHLSNFFARKGIVFDKDTGLFRIDNQFSRQIRLVGHGQKYAMVRKGLQRNGILANREVESNIWIETGDLKTTHFIIHETSGGTYITQTIEELLAYFDTEKS | not soluble
2 | MSLNRVFIVDDDTLTCNLLKTIVEPIFGNVEAFQHPRAFLTLSLNKQDIIILDLMMPDMDGIEVIRHLAEHKSPASLILISGYDSGVLHSAETLALSCGLNVINTFTKPINTEVLTCFLTSLSNRQAQRELVSFNNDKANQGKFDFIPTEQDLREAIDKKQLILYYQPQINMKTECLHGAEVLVRWLHPEFGLIYPDKFIALAEQTGLIEQLSEEVIHLAIKQSVHWQKLNRATRLSINISAQNITSLKLPEQLRMLVKKYEIDPSMIVLELTESALMDSEVTSLDIFTRFRLKGFQLSIDDFGTGYSSLSQLHKIPFTELKIDQSFVTNMKQEKESMAIVETCIMLAHKLNMEAVAEGIEDKETWDLLSAEGCDIAQGYYIARPMPADQFDKWQFNEGHHHHHH | soluble
3 | NGFQKEMRTRILGMVPHATISAAQPLDDWQTVANAALRHREVVGAAPFAELQGMLSYKGNMLPVLVNGIDPQEERKVSIVGEHIVQGSLDDLKPGEFGIVLGEITARRFHVNVGDKLTLIVPEATSAPGGITPRMQRFTIVALFKVGAELDNSLALIDIADAGQLLRLQPGQVPSVRLELKDLYQSPQVAAKVVKELGQGFRSSDWTRTQGSLFNAMKMEKT | not soluble
4 | MPPGKCLFSGVFCNMAEKQTAKRNRREEILQSLALMLESSDGSQRITTAKLAASVGVSEAALYRHFPSKTRMFDSLIEFIEDSLITRINLILKDEKDTTARLRLIVLLLLGFGERNPGLTRILTGHALMFEQDRLQGRINQLFERIEAQLRQVLREKRMREGEGYTTDETLLASQILAFCEGMLSRFVRSEFKYRPTDDFDARWPLIAAQLQ | not soluble
5 | MGSDKIHHHHHHMAATLKLSQLISALSYALDITEGQPEGHCVRSCWIGMHIGRALGLAPQELWDLYYAILLKDLGCSSNAARICELYRTDDRSFKQDFKQVGASLPQMLGFVFSHTGTHAAGWRERAASVVQVLRRGKEMADELINTRCHRGADIARQLRFNENVANGIQYLDEHWDGSGRPLGLQRDAIPLNARIALLAQVIDVFHVTHGRHAALDEAVRRGGGWFDPELVAAFRGASRDTAFWQRLESDDIERAVLALEPAQCTVPLDEDYMDEIAEGFGQVVDSKSPFTAGHSQRVGHYADRIGEELGLSPQRRRWLKRGALLHDVGKLGVSNTILDKPGKLTPEEWEAVKLHASHTETILGRIESFAELAKVAGAHHERLDGKGYPRGLMASEIALETRVITTADIFDAIHAARPYHPENPVPETLDIMRKNLGSALDPACFEALEAVLREEDALESDAICLT | not soluble
6 | IRHEITSRTSVSVLVNRCNWFCTSPKCSGLTVMGCLCVAMSVAKKDKPTMSVTALINWARPLPPGQQQQPMTPTSPGNMLQPMATPSNLPTVDCSLDIQWLNLEGGFMSPMSPPEMKPDTAMLDGLRDDSTPPPAFKNYPPNHPLSGSKHLCSICGDRASGKHYGVYSCEGCKGFFKRTVRKDLTYACREERNCIIDKRQRNRCQYCRYQKCLACGMKREAVQEERQRAARGTEDAHPSSSVQVQELSIERLLEMESLVADPSEEFQFLRVGPDSNVPPKFRAPVSSLCQIGNKQIAALVVWARDIPHFSQLEMEDQILLIKGSWNELLLFAIAWRSMEFLTEERDGVDGTGNRTTSPPQLMCLMPGMTLHRNSALQAGVGQIFDRVLSELSLKMRTLRVDQAEYVALKAIILLNPDVKGLKNRQEVEVLREKMFLCLDEYCRRSRSSEEGRFAALLLRLPALRSISLKSFEHLFFFHLVADTSIAGYIRDALRNHAPPIDTNMM | soluble
7 | MAKKVAIYTRVSTTNQAEEGFSIDEQIDRLTKYAEAMGWQVSDTYTDAGFSGAKLERPAMQRLINDIENKAFDTVLVYKLDRLSRSVRDTLYLVKDVFTKNKIDFISLNESIDTSSAMGSLFLTILSAINEFERELEY | soluble
8 | MMRTVQLRTLRPCIRAQQQPVRPSTSATAAAATAPAPARKCPSSLFAKLGGREAVEAAVDKFYNKIVADPTVSTYFSNTDMKVQRSKQFAFLAYALGGASEWKGKDMRTAHKDLVPHLSDVHFQAVARHLSDTLTELGVPPEDITDAMAVVASTRTEVLNMPQQ | soluble
9 | MRTEGRLVRANLPLNLPSPTMRYMTPQRFGMGGTQIGNIFAPISDEQADLVLQAAWNAGVRLYDTSPFYGFGLSEYRLGRFLRGKDPADYVISTKVGRVLTAAGGARQDHAIWKSPAPFNYRYDYTAAGARRSVEDSLQRLGLPRIDIVFIHDLSPDNTELEGGWEAAYRIARTGAMVELEKMRDEGLIKAWGFGVNTPNAVVQAMGSDDPTPDIVLLACQYSLIDHSEALRNTFPALHRKGTSVVVGTPLNDGFLGGRNRYNFSLELPAGAVEKRKRIMAVAARHGIDIHTAALQFAAAHPQVSAIIPGARSPGQVMSNVQAMKVGIPAAFWAELKSQSLMDAQAPVPS | not soluble
10 | MKSLESMEQFQQLKNEENVVFMFSAEWCPDCRFVDPFMPEVEEKYSDFSFYYVDRDEFIDLCVKLDVFGIPSFVAYNKGEETGRYVNKDRKTQEQIEEFIEGLK | not soluble
11 | MGSDKIHHHHHHMSFTSLPLTEINHKLPARNIIESQWITLQLTLFAQEQQAKRVSHAIVSSAYRKAEKIIRDAYRYQREQKVEQQQELACLRKNTLEKMEVEWLEQHVKHLQDDENQFRSLVDHAAHHIKNSIEQVLLAWFDQQSVDSVMCHRLARQATAMAEEGALYLRIHPEKEALMRETFGKRFTLIIEPGFSPDQAELSSTRYAVEFSLSRHFNALLKWLRNGEDKRGSDEY | not soluble
12 | GSPELGFSFDYAYQPIVNLHDQSIFAHEALVRGPNGEGAMSVLNQVTDQNRYRFDQKCRTTAIAGAAKLGMTERLSINFLPNAVYRPELCIRSTLEAAKQHDFPIERLIFETIESEHVDNNNHLSNILREYREFGFMTAIDDFGAGYSGLTLLADFQPDLIKLDMNLVRDIHRDRARQAIVRGVVTMCKDLGIKLIAEGIEHIEERDFLADCGISLMQGYLFAKP | not soluble
13 | MLSKVQCILNRRTMADVDVDVPSAAPVLDGAMDINTALQEVLKKSLIADGLVHGIHQACKALDKRQAVLCILAESFDEPNYKKLVTALCNEHQIPLIRVDSHKKLGEWSGLCKIDKEGKPRKVCGCSVVVIKDFGEETPALDVVKDHLRQNSLEHHHHHH | not soluble
14 | MGSDKIHHHHHHMSNKLPALHLFGIFEAAARHENFKQAAAELFITPSAVSHQIKALEAFLGFELFQRKSRGVALNAAGKVYLHYVQQGINKLEQGTKIVSNKFSSPSLKISTFTTMASNVIIPTLSDFQQQHPTIDIRIETGMNLTDLRYDDCDLAIRMGKGDWPGVVVKKLLNLTAHAVCSAEFAKKHKLTSPEQISQVPLIDLANMNNIWRTWAGAMQLPEMQYQHKLTFGNYDASLQAAEQGLGLALAIMPIEHALIERNLLVLPFEKSTNFDQSLYAVYREEDQNRNDIHCFLDWLTQSPNLKPI | not soluble
15 | MGSDKIHHHHHHMSIYNSIGKQYSQTRVPDIRIVNAIINLLNLPKGSVIADIGAGTGGYSVALANQGLFVYAVEPSIVMRQQAVVHPQVEWFTGYAENLALPDKSVDGVISILAIHHFSHLEKSFQEMQRIIRDGTIVLLTFDIRLAQRIWLYDYFPFLWEDALRFLPLDEQINLLQENTKRRVEAIPFLLPHDLSDLFAAAAWRRPELYLKAEVRAGISSFALANQDLVEKGLELLTADLNNGEWIRKYGEIHHLQEIDIGYRFIYTTLDK | not soluble
16 | MEKRNIQVTRHFVCADQLQQISETVIACLGQEDLITISGGLGPISDDKTRDAVAKAVRQPLFHHEDVWQTIKGQLGWLGSTPDSNNARQALFPETAKVLDNPTGTAPGFYLSCGESILVILTGSLTQAFALLENYLEHGEKKYSSVSRARYAWILIGIDESAIAHWVDCQLANELFERHFYGKALMFSYNWLASHQRFWLSI | not soluble
17 | MSLHLIPRPKSVINHEGEFFIERDTEIILSSELSFEDLNLAIMIQKEIEKVLDFKLNINKLFMDKKYSNSIILREFKFENEEEYKIEIKENQVIIEGFGAGLFYGCQSFRQLVREFGACIPNLTIEDSPYFKYRGFYHDVTRGMVPTLDTLKRLVDKAAFYKINQLQLYIEHTFAFKGMSEVWMDKDPLTAEEILILDKYCKERHVELVPSLSTFGHLYEALRSKSFRELCELEIGDEEYSFVDRMAHHTLDVTNPKSLDFVESMLLEFIPLFSSDKFNICCDETFDLGKGKSREKAEKLGVGKIYTEFLNKVYNIVKRFNKNVMFWGDIIVGYPELLSDIPEDLTCLTWNYHPQANDVATKIIAENNKVQYVCPGVGGWNMMMNLIEGSFSNIRRMVNHGMKYGAIGVLNTNWGDYGNINLLANSMPSMIYGAGISWNPKEEEFNEIFKSISLMEFGDESMKVVSLMDKLSKNQVAGWGELVRWKEKFNEREETKEEIKNIDTLKVFEGYKVASEVRREFIKLLKNTEDKEAIQSFIVSSKGWELIDKFFMVLLEREFNKKSLLDIDKKDLAKDLELWFYDYTSIWRKYNKESELNRIREVIVYMCSYLRGEGHHHHHH | soluble
18 | SLAWHQRKHTQATPLRDIAADYTLQDFKLVALDTQTGKESLTLLGQQMQHNQTDSSAEVTAPLFMIPDQAGQHWTLQAQTGWINKDGTLLRLRHDVKGDSPTDLGQLPTTFRTQSLDIYPNHHLAKTTDAVTITHQGIIQTGVGFEVNTKTQQYKFNSKVNTRYEPSAAR | soluble
19 | VTDILREIGMIARALDSISNIEFKELSLTRGQYLYLVRVCENPGIIQEKIAELIKVDRTTAARAIKRLEEQGFIYRQEDASNKKIKRIYATEKGKNVYPIIVRENQHSNQVALQGLSEVEISQLADYLVRMRKNVSEDWEFVKKGNTRNY | soluble
20 | MGSDKIHHHHHHMENHTDIETLLTKYFEGNTTPPENEQIEAWLNADEEHLRIAKQLNTLYLAVDTQHITKKIDTEKALDKVKSRTKVRNLSWWGWTQRIAAILSVPLLIGVLALYPDRQQPVVTAQMVEIKTNAGMTTSVLLPDSTVVHLNSESSLRYPTFFAGDVRQVELNGEAYFDVTQHPRKRFIVSTPHHSQVEVYGTSFNVEAYGNETPISTTLIEGSVGFIYKNSKGKFQKSMLSPRQKLVYSPQTGDIKCYATSGESEISWKDGKLIFNDTPLDEVLHMLGKRFNVEFVLSNKGLKGCSFTGTFTHQRLERIMEYFRISSHIRWRYIDSADIKTEKLKIEVY | not soluble
21 | MGSDKIHHHHHHMMKIYKKNIDHYIMLSFEINEMNIPFTGQIVVKEDDEVTREVILGRAKKIHEWLVLVDHIFSPFRTNSELTLYNHRKIEMTGTNLLFQEVFALSIWAKEMTQGLFSANFVGKYNPTGAVKGWAIEKAERIQLEPLLSDPNFVAVNLNGGGDMQFSSSDKHNWQWEIGIVNPFDNKKVISCFRMKNGAIATSGTSQRGEHLFNSSTGRAIPEKNFNVISSSVIGSELTYSDIWATAIATTTINDHSWLKRLSGSGLRISYNKKSERWLNHEIIDQKELIYA | not soluble
